Data on 27 molecules can be found in patent publication EP4772193A1 (Teijin Pharma Limited, dated 2026).

Sequences and labels used below:
B1: hGPN06-1_H1L1 VH D31A (antibody, V domains shown)
VH: QVQLVQSGAEVKKPGASVKVSCKASGYTFTANWMGWVKQRPGQGLEWIGAIDPSDSFTNYNQNFKGRVTMTVDTSISTAYMELSRLRSDDSAVYFCTRSGYYGSPKLGGDYWGQGTLVTVSS
VL: EIVLTQSPSSLSASVGDRVTITCSASSSISYMHWYQQKSGTAPKLLIYSTSNLASGVPSRFSGSGSGTDFTFTISSLQPEDAATYYCHQWNSYPCTFGGGTKLEIK
B2: hGPN06-1_H1L1 VH F29A (antibody, V domains shown)
VH: B1 VH with F29A, A31D
VL: B1 VL
B3: hGPN06-1_H1L1 VH D52A (antibody, V domains shown)
VH: B1 VH with A31D, D52A
VL: B1 VL
B4: hGPN18-2_H2L3 VL N58A (antibody, V domains shown)
VH: QVQLVQSGPGLVQPTQTLTLTCSFSGFSLSTSVMGVGWIRQPSGKGLEWLADIWWDDDKDYNPSLKSRLTISKDTSKNQVVLTMTNMDTVDTATYYCARTYYSNYEYYGMDYWGQGTLVTVSS
VL: DIVMTQSPDSLAVSLGERATINCRSSQTIILSNGNTYLEWYQQKPGQPPKLLIYKVSARFSGVPDRFSGSGSGTDFTLTISSLQAEDVAVYYCFQGSHVPFTFGSGTKLEIKR
B5: hGPN18-2_H2L3 VL S32A (antibody, V domains shown)
VH: B4 VH
VL: B4 VL with S32A, A58N
B6: hGPN18-2_H2L3 VL P100A (antibody, V domains shown)
VH: B4 VH
VL: B4 VL with A58N, P100A
B7: hGPN18-2_H2L3 VL T102A (antibody, V domains shown)
VH: B4 VH
VL: B4 VL with A58N, T102A
B8: hGPN18-2_H2L3 VL Q95A (antibody, V domains shown)
VH: B4 VH
VL: B4 VL with A58N, Q95A
B9: hGPN18-2_H2L3 VL S26A (antibody, V domains shown)
VH: B4 VH
VL: B4 VL with S26A, A58N
B10: hGPN18-2_H2L3 VL T36A (antibody, V domains shown)
VH: B4 VH
VL: B4 VL with T36A, A58N
B11: hGPN18-2_H2L3 VL Q27A (antibody, V domains shown)
VH: B4 VH
VL: B4 VL with Q27A, A58N
B12: hGPN18-2_H2L3 VL T28A (antibody, V domains shown)
VH: B4 VH
VL: B4 VL with T28A, A58N
B13: hGPN18-2_H2L3 VL S61A (antibody, V domains shown)
VH: B4 VH
VL: B4 VL with A58N, S61A
B14: hGPN18-2_H2L3 VL R24A (antibody, V domains shown)
VH: B4 VH
VL: B4 VL with R24A, A58N
B15: hGPN18-2_H2L3 VL S25A (antibody, V domains shown)
VH: B4 VH
VL: B4 VL with S25A, A58N
B16: hGPN18-2_H2L3 VL R59A (antibody, V domains shown)
VH: B4 VH
VL: B4 VL with A58N, R59A
B17: hGPN18-2_H2L3 VL S57A (antibody, V domains shown)
VH: B4 VH
VL: B4 VL with S57A, A58N
B18: hGPN18-2_H2L3 VL V99A (antibody, V domains shown)
VH: B4 VH
VL: B4 VL with A58N, V99A
B19: hGPN18-2_H2L3 VL S97A (antibody, V domains shown)
VH: B4 VH
VL: B4 VL with A58N, S97A
B20: hGPN18-2_H2L3 VL V56A (antibody, V domains shown)
VH: B4 VH
VL: B4 VL with V56A, A58N
B21: hGPN18-2_H2L3 VL Y37A (antibody, V domains shown)
VH: B4 VH
VL: B4 VL with Y37A, A58N
B22: hGPN18-5_H2L2 (antibody, V domains shown)
VH: QVQLVQSGAEVKKPGASVKVSCKASGYTFTTYWMNWVRQAPGQGLEWIGAINPSNDYTEYNQKFKDRATMTADTSTSTVYMELSSLRSEDTAVYYCGRSYSPDYWGQGTTVTVSS
VL: DIQMTQSPSSLSASVGDRVTITCKASQNVDNHVAWFQQKPGKAPKALIYSASYRYSGVPDRFSGSGSGTDFTLTISSLQPEDFATYFCQQYKSYPFTFGGGTKLEIK
notes: humanized; also called hGPN18-5_VH2+VL2
B23: hGPN18-5_H1L3 (antibody, V domains shown)
VH: B22 VH with A68V
VL: B22 VL with F36H, S63T, T85D
notes: humanized; also called hGPN18-5_VH1+VL3; GPN18-5-VH1+VL3
B24: hGPN18-5_H2L3 (antibody, V domains shown)
VH: B22 VH
VL: B22 VL with F36H, S63T, T85D
notes: humanized; also called hGPN18-5_VH2+VL3; GPN18-5-VH2+VL3
B25: hGPN18-5_H3L2 (antibody, V domains shown)
VH: B22 VH with T69I, T74K
VL: B22 VL
notes: humanized; also called hGPN18-5 VH3+VL2
B26: hGPN18-5_H1L2 (antibody, V domains shown)
VH: B22 VH with A68V
VL: B22 VL
notes: humanized; also called hGPN18-5_VH1+VL2
B27: hGPN18-5_H2L1 (antibody, V domains shown)
VH: B22 VH
VL: B22 VL with D60S
notes: humanized; also called hGPN18-5_VH2+VL1

Changes are numbered by the printed parent chain. Names may count otherwise.

One test addresses T1, recombinant human soluble gpNMB (recombinant human gpNMB-FLAG-His) (human, UniProt Q14956 23-498).
T1 sequence: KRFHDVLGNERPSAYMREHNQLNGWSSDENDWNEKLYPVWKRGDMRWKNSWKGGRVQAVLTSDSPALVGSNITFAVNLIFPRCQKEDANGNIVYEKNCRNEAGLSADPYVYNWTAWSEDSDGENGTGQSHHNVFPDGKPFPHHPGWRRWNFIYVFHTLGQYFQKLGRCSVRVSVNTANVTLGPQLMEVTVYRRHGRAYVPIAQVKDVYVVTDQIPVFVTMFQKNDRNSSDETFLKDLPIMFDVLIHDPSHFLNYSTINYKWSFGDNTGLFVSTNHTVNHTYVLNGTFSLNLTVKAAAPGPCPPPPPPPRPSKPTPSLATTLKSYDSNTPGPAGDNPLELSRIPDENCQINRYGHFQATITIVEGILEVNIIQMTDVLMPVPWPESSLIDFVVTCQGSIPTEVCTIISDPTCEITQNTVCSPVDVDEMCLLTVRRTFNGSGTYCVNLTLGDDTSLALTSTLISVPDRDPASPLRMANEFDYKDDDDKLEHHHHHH
Briefly: antigen ELISA. On the technique in general: An ELISA detects its analyte on a solid surface through an enzyme-linked reagent.
The EC50 is the concentration giving half of the maximal effect. For B1, the EC50 worked out at 0.515 nM.
In the case of B2, the half-maximal effective concentration (EC50) turned out to be 4.8 nM.
The same measure, in the same setting: the same measure for B3: 2.79 nM.

Another test has as its target T1, recombinant human soluble gpNMB …. Briefly: antigen ELISA. This is another data set of the same source.
For B4, the concentration giving a half-maximal response (EC50) was found to be 2.86 nM.
Turning to B5, the EC50 is 8.67 nM.
The same measure, in the same setting: the same measure for B6: 4.22 nM; for B7: 4.73 nM.
Turning to B8, the EC50 came out at 5.49 nM.
On to B9, for which the concentration for a half-maximal effect (EC50) was found to be 3.14 nM.
On to B10, for which the EC50 stood at 4.74 nM.
B11: the 50% effective concentration (EC50) was found to be 4 nM.
On to B12, for which the half-maximal effective concentration (EC50) was found to be 2.91 nM.
Still for that read-out and setting: the same measure for B13: 3.63 nM.
Still for that read-out and setting: the same measure for B14: 4.73 nM; for B15: 3.76 nM.
The same measure, in the same setting: as for B16, the figure is 2.36 nM; as for B17, 3.14 nM.
For B18, the concentration for a half-maximal effect (EC50) turned out to be 9.93 nM.
On the same count and under the same terms, as for B19, the figure is 3.29 nM; as for B20, 2.99 nM.
On the same count and under the same terms, the same measure for B21: 27.1 nM.

A further test has the same target. Briefly: antigen ELISA, vs hGPN06-1_H1L1.
B1: the Relative binding activity is 1.26.
Still for that read-out and setting: the same measure for B2: 0.54; for B3: 0.51.

For another test the target is unchanged. As to the kind of experiment: antigen ELISA, vs hGPN18-2_H2L3.
In the case of B4, the Relative binding activity is 1.04.
Same read-out and setting: the same measure for B5: 0.92; for B6: 0.84.
For the molecule B7, the Relative binding activity amounted to 0.81.
The same measure, in the same setting: as for B8, the figure is 0.79; as for B9, 1.03.
Same read-out and setting: the same measure for B10: 1.06.
The same measure, in the same setting: as for B11, the figure is 1.04.
As to B12, the Relative binding activity was found to be 1.05.
Same read-out and setting: as for B13, the figure is 0.94; as for B14, 1.04; as for B15, 1.01.
Same read-out and setting: as for B16, the figure is 1.11; as for B17, 1.05.
With B18, the Relative binding activity is 0.81.
Still for that read-out and setting: the same measure for B19: 1.04; for B20: 1.07; for B21: 0.37.

The target in another test is T2, human gpNMB (Human Osteoactivin, His-tag, AcroBioSystems) (human, UniProt Q14956-2 23-486, limits assumed).
T2 sequence (looked up): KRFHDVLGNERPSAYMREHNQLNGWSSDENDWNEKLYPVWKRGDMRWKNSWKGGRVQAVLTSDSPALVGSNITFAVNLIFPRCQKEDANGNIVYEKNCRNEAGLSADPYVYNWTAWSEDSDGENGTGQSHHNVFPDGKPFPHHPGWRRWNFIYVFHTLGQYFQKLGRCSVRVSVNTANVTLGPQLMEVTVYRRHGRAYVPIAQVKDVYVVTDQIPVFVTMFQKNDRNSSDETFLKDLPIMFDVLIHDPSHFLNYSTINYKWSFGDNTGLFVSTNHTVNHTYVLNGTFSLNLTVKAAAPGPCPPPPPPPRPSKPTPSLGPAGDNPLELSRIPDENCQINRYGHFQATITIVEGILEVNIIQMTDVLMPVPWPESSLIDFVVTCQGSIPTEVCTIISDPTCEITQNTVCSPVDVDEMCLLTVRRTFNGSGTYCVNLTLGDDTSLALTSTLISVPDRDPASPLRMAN
As to the kind of experiment: SPR Biacore 8K, antibody captured on protein A, gpNMB as analyte.
What is called Kd is the equilibrium constant for the complex coming apart. Broadly, the koff is a measure of how fast the partners let go of each other. A lower koff goes with slow dissociation. By kon is commonly meant a measure of how fast the partners come together. Higher therefore signals fast association. B22 gave a Kd of 763 nM, a koff of 0.00403 s⁻¹ and an on-rate (kon) of 5280 M⁻¹ s⁻¹.
For B23 the same measures were 214 nM, 0.00153 s⁻¹ and 7150 M⁻¹ s⁻¹.
For B24 the same measures were 190 nM, 0.00148 s⁻¹ and 7780 M⁻¹ s⁻¹.
For B25 the same measures were 548 nM, 0.00436 s⁻¹ and 7950 M⁻¹ s⁻¹.
With B26, the Kd came to 423 nM, the koff came to 0.00396 s⁻¹ and the kon was found to be 9380 M⁻¹ s⁻¹.
For B27, in that order: 661 nM, 0.00454 s⁻¹ and 6870 M⁻¹ s⁻¹.
